Source: the supplement of paper PMC11316812
± gives the standard deviation of the averaged measurements.

Experiments:
hTERT-HMEC = test: percentage of EdU-negative (G0-arrested) nuclei per well, 72 h; higher = more G0 arrest; details: reference: sequence is the full UniProt precursor, the tested protein was the secreted form or ectodomain
MCF7 = test: as above; details: reference: sequence is the full UniProt precursor, the tested protein was the secreted form or ectodomain
[1] = protein concentration 0.0225 µM
[2] = protein concentration 0.00975 µM
[3] = protein concentration 0.0975 µM
[4] = protein concentration 0.00669 µM
[5] = protein concentration 0.0669 µM
[6] = protein concentration 0.0237143 µM
[7] = protein concentration 0.237143 µM
[8] = protein concentration 0.021935 µM
[9] = protein concentration 0.21935 µM
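Also: secreted proteins added to cultured cells, EdU pulse at the end, nuclei found by Hoechst imaging, EdU status from nuclear versus surrounding ring intensity ratio, PBS as neutral control.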

## MGPLPVCLPIMLLLLLPSLLLLLLLPGPGSGEASRILRVHRRGILELAGTVGCVGPRTPIAYMKYGCFCGLGGHGQPRDAIDWCCHGHDCCYTRAEEAGCSPKTERYSWQCVNQSVLCGPAENKCQELLCKCDQEIANCLAQTEYNLKYLFYPQFLCEPDSPKCD
hTERT-HMEC; [1]
  percentage of EdU-negative: 7.05 ± 0.95%
hTERT-HMEC; protein concentration 0.225 µM
  percentage of EdU-negative: 10.3 ± 2.1%
MCF7; [1]
  percentage of EdU-negative: 29.3 ± 2.5%
MCF7; protein concentration 0.225 µM
  percentage of EdU-negative: 31.17 ± 0.13%

## MNLWLLACLVAGFLGAWAPAVHTQGVFEDCCLAYHYPIGWAVLRRAWTYRIQEVSGSCNLPAAIFYLPKRHRKVCGNPKSREVQRAMKLLDARNKVFAKLHHNTQTFQAGPHAVKKLSSGNSKLSSSKFSNPISSSKRNVSLLISANSGL
hTERT-HMEC; [2]
  percentage of EdU-negative: 4.38 ± 0.21%
hTERT-HMEC; [3]
  percentage of EdU-negative: 5.5688 ± 0.0047%
MCF7; [2]
  percentage of EdU-negative: 24.3 ± 1.7%
MCF7; [3]
  percentage of EdU-negative: 25.01 ± 0.22%

## MAQHGAMGAFRALCGLALLCALSLGQRPTGGPGCGPGRLLLGTGTDARCCRVHTTRCCRDYPGEECCSEWDCMCVQPEFHCGDPCCTTCRHHPCPPGQGVQSQGKFSFGFQCIDCASGTFSGGHEGHCKPWTDCTQFGFLTVFPGNKTHNAVCVPGSPPAEPLGWLTVVLLAVAACVLLLTSAQLGLHIWQLRSQCMWPRETQLLLEVPPSTEDARSCQFPEEERGERSAEEKGRLGDLWV [Q9Y5U5]
hTERT-HMEC; [4]
  percentage of EdU-negative: 5.37 ± 0.9%
hTERT-HMEC; [5]
  percentage of EdU-negative: 6.01 ± 1.5%
MCF7; [4]
  percentage of EdU-negative: 24.9 ± 1.6%
MCF7; [5]
  percentage of EdU-negative: 23.9 ± 0.75%

## MKGSIFTLFLFSVLFAISEVRSKESVRLCGLEYIRTVIYICASSRWRRHQEGIPQAQQAETGNSFQLPHKREFSEENPAQNLPKVDASGEDRLWGGQMPTEELWKSKKHSVMSRQDLQTLCCTDGCSMTDLSALC [Q9Y5Q6]
hTERT-HMEC; [1]
  percentage of EdU-negative: 5.011 ± 0.042%
hTERT-HMEC; protein concentration 0.225 µM
  percentage of EdU-negative: 4.97 ± 0.86%
MCF7; [1]
  percentage of EdU-negative: 25.5 ± 2.3%
MCF7; protein concentration 0.225 µM
  percentage of EdU-negative: 27.6 ± 3%

## MQWLRVRESPGEATGHRVTMGTAALGPVWAALLLFLLMCEIPMVELTFDRAVASGCQRCCDSEDPLDPAHVSSASSSGRPHALPEIRPYINITILKGDKGDPGPMGLPGYMGREGPQGEPGPQGSKGDKGEMGSPGAPCQKRFFAFSVGRKTALHSGEDFQTLLFERVFVNLDGCFDMATGQFAAPLRGIYFFSLNVHSWNYKETYVHIMHNQKEAVILYAQPSERSIMQSQSVMLDLAYGDRVWVRLFKRQRENAIYSNDFDTYITFSGHLIKAEDD [Q9BXI9]
hTERT-HMEC; [1]
  percentage of EdU-negative: 4.57 ± 0.33%
hTERT-HMEC; protein concentration 0.225 µM
  percentage of EdU-negative: 4.82 ± 1.2%
MCF7; [1]
  percentage of EdU-negative: 26.9 ± 1.5%
MCF7; protein concentration 0.225 µM
  percentage of EdU-negative: 29.5 ± 1.2%

## MVWRVPPFLLPILFLASHVGAAVDLTLLANLRLTDPQRFFLTCVSGEAGAGRGSDAWGPPLLLEKDDRIVRTPPGPPLRLARNGSHQVTLRGFSKPSDLVGVFSCVGGAGARRTRVIYVHNSPGAHLLPDKVTHTVNKGDTAVLSARVHKEKQTDVIWKSNGSYFYTLDWHEAQDGRFLLQLPNVQPPSSGIYSATYLEASPLGSAFFRLIVRGCGAGRWGPGCTKECPGCLHGGVCHDHDGECVCPPGFTGTRCEQACREGRFGQSCQEQCPGISGCRGLTFCLPDPYGCSCGSGWRGSQCQEACAPGHFGADCRLQCQCQNGGTCDRFSGCVCPSGWHGVHCEKSDRIPQILNMASELEFNLETMPRINCAAAGNPFPVRGSIELRKPDGTVLLSTKAIVEPEKTTAEFEVPRLVLADSGFWECRVSTSGGQDSRRFKVNVKVPPVPLAAPRLLTKQSRQLVVSPLVSFSGDGPISTVRLHYRPQDSTMDWSTIVVDPSENVTLMNLRPKTGYSVRVQLSRPGEGGEGAWGPPTLMTTDCPEPLLQPWLEGWHVEGTDRLRVSWSLPLVPGPLVGDGFLLRLWDGTRGQERRENVSSPQARTALLTGLTPGTHYQLDVQLYHCTLLGPASPPAHVLLPPSGPPAPRHLHAQALSDSEIQLTWKHPEALPGPISKYVVEVQVAGGAGDPLWIDVDRPEETSTIIRGLNASTRYLFRMRASIQGLGDWSNTVEESTLGNGLQAEGPVQESRAAEEGLDQQLILAVVGSVSATCLTILAALLTLVCIRRSCLHRRRTFTYQSGSGEETILQFSSGTLTLTRRPKLQPEPLSYPVLEWEDITFEDLIGEGNFGQVIRAMIKKDGLKMNAAIKMLKEYASENDHRDFAGELEVLCKLGHHPNIINLLGACKNRGYLYIAIEYAPYGNLLDFLRKSRVLETDPAFAREHGTASTLSSRQLLRFASDAANGMQYLSEKQFIHRDLAARNVLVGENLASKIADFGLSRGEEVYVKKTMGRLPVRWMAIESLNYSVYTTKSDVWSFGVLLWEIVSLGGTPYCGMTCAELYEKLPQGYRMEQPRNCDDEVYELMRQCWRDRPYERPPFAQIALQLGRMLEARKAYVNMSLFENFTYAGIDATAEEA
hTERT-HMEC; [6]
  percentage of EdU-negative: 5.57 ± 1.2%
hTERT-HMEC; [7]
  percentage of EdU-negative: 5.36 ± 0.036%
MCF7; [6]
  percentage of EdU-negative: 23.1 ± 1.1%
MCF7; [7]
  percentage of EdU-negative: 26.39 ± 0.034%

## MLPAATASLLGPLLTACALLPFAQGQTPNYTRPVFLCGGDVKGESGYVASEGFPNLYPPNKECIWTITVPEGQTVSLSFRVFDLELHPACRYDALEVFAGSGTSGQRLGRFCGTFRPAPLVAPGNQVTLRMTTDEGTGGRGFLLWYSGRATSGTEHQFCGGRLEKAQGTLTTPNWPESDYPPGISCSWHIIAPPDQVIALTFEKFDLEPDTYCRYDSVSVFNGAVSDDSRRLGKFCGDAVPGSISSEGNELLVQFVSDLSVTADGFSASYKTLPRGTAKEGQGPGPKRGTEPKVKLPPKSQPPEKTEESPSAPDAPTCPKQCRRTGTLQSNFCASSLVVTATVKSMVREPGEGLAVTVSLIGAYKTGGLDLPSPPTGASLKFYVPCKQCPPMKKGVSYLLMGQVEENRGPVLPPESFVVLHRPNQDQILTNLSKRKCPSQPVRAAASQD
hTERT-HMEC; [8]
  percentage of EdU-negative: 4.8 ± 0.62%
hTERT-HMEC; [9]
  percentage of EdU-negative: 6.48 ± 0.73%
MCF7; [8]
  percentage of EdU-negative: 22.7 ± 2.1%
MCF7; [9]
  percentage of EdU-negative: 26.5 ± 0.72%
